Measurements: publication PMC10853778 (Nucleic Acids Research, 2022)

Experiments:
[1] = target: HA-tagged human RTEL1 HHD1+2 deletion construct (human) (UniProt Q9NZ71); test: co-IP; whole-cell extracts of HEK293T cells overexpressing HA-tagged RTEL1 constructs; IP overnight at 4°C (anti-HA), protein G agarose, immunoblot for RPA; with or without 100 units Benzonase
[2] = target: T1, RPA 32C winged-helix domain (residues 172-270 of RPA32) (human, UniProt P15927 172-270); test: NMR titration; 15N-labelled partner titrated with unlabelled partner; 1H-15N HSQC, 25°C, 20 mM Tris-HCl pH 7.4, 50 mM NaCl, 2 mM DTT, 0.02% NaN3; Kd and Koff from TITAN 2D lineshape analysis, two-state model; conditions: both partners purified
T1 construct: RPA32 (RPA2), human, residues 172-270 (winged-helix 32C domain); pET-15b; uniformly 15N-labelled where it was the observed partner; source: E. coli BL21(DE3) pLysS, purified (Ni-NTA, Q column, SEC); not shown: His6, N-terminal, kept
T1 sequence (P15927 172-270): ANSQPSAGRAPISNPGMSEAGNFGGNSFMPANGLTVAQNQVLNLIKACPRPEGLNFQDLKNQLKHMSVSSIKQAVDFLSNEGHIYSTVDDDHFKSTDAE

RTEL1 HHD2 [3] = target: T2, RTEL1 HHD2 (Homo sapiens, UniProt Q9NZ71-6 1056-1140); test: ITC; pH 6.5; NMR: 20 mM Tris-HCl pH 7.4, 50 mM NaCl, 2 mM DTT, 0.02% NaN3, 10% D2O, 25 C (one ssDNA-22 titration at pH 6.5); ITC: 10 mM potassium phosphate pH 6.5, 50 mM KCl, 0.02% NaN3, 25 C; conditions: protein: recombinant, tags: N-terminal 6xHis
T2 sequence: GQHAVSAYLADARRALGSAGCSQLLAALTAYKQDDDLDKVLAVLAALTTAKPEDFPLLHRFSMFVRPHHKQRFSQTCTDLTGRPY

RTEL1 HHD2 [4] = target: T2, RTEL1 HHD2; test: NMR titration (TITAN); pH 7.4; NMR: 20 mM Tris-HCl pH 7.4, 50 mM NaCl, 2 mM DTT, 0.02% NaN3, 10% D2O, 25 C (one ssDNA-22 titration at pH 6.5); ITC: 10 mM potassium phosphate pH 6.5, 50 mM KCl, 0.02% NaN3, 25 C; conditions: protein: recombinant, tags: N-terminal 6xHis
RTEL1 HHD1 = target: T3, RTEL1 HHD1 (Homo sapiens, UniProt Q9NZ71-6 886-978); test: NMR titration; NMR: 20 mM Tris-HCl pH 7.4, 50 mM NaCl, 2 mM DTT, 0.02% NaN3, 10% D2O, 25 C (one ssDNA-22 titration at pH 6.5); ITC: 10 mM potassium phosphate pH 6.5, 50 mM KCl, 0.02% NaN3, 25 C; conditions: protein: recombinant; tags: N-terminal 6xHis; single strand
T3 sequence: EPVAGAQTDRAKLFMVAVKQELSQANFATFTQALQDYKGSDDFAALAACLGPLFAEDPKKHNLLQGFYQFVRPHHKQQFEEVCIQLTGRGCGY

RTEL1 HHD2 [5] = target: T2, RTEL1 HHD2; test: NMR titration (TITAN); pH 6.5; NMR: 20 mM Tris-HCl pH 7.4, 50 mM NaCl, 2 mM DTT, 0.02% NaN3, 10% D2O, 25 C (one ssDNA-22 titration at pH 6.5); ITC: 10 mM potassium phosphate pH 6.5, 50 mM KCl, 0.02% NaN3, 25 C; conditions: protein: recombinant; tags: N-terminal 6xHis; single strand
RTEL1 HHD2 [6] = target: T2, RTEL1 HHD2; test: NMR titration; pH 7.4; NMR: 20 mM Tris-HCl pH 7.4, 50 mM NaCl, 2 mM DTT, 0.02% NaN3, 10% D2O, 25 C (one ssDNA-22 titration at pH 6.5); ITC: 10 mM potassium phosphate pH 6.5, 50 mM KCl, 0.02% NaN3, 25 C; conditions: protein: recombinant; tags: N-terminal 6xHis; single strand

Molecule: endogenous replication protein A (RPA) of HEK293T cells (from UniProt P27694 1-616; P15927 1-270; P35244 1-121) (complex)
- reduction of co-immunoprecipitated RPA against full-length HA-RTEL1 [1]: 80%

B1: RTEL1 harmonin homology domain 2 (residues 1056-1140) (domain or fragment, human, UniProt Q9NZ71-6 1056-1140, looked up)
chain: GQHAVSAYLADARRALGSAGCSQLLAALTAYKQDDDLDKVLAVLAALTTAKPEDFPLLHRFSMFVRPHHKQRFSQTCTDLTGRPY
notes: RTEL1, human, residues 1056-1140 (HHD2) of Uniprot Q9NZ71-6; uniformly 15N-labelled where it was the observed partner; also called HHD2; RTEL1 HHD2; source: E. coli Rosetta (DE3), purified (Ni-NTA, heparin, SEC); not shown: His6, N-terminal, kept
- Kd [2]: 360 µM
- koff [2]: 8460 s⁻¹

Molecule: TTAGGCAGAGAGAGAGAGTTAGGC (ssDNA) [ssDNA-24]
- Kd (RTEL1 HHD2 [3]; single strand): 1320 ± 150 nM

Molecule: AGGATTAGGATTAGGATTAGGA (ssDNA) [ssDNA-22]
- Kd (RTEL1 HHD2 [4]; single strand): 14.6 ± 1.21 µM
- binding result (RTEL1 HHD1): no binding
- Kd (RTEL1 HHD2 [3]; single strand): 940 ± 130 nM
- Kd (RTEL1 HHD2 [5]): 3.03 ± 0.64 µM

B2: dsDNA-22 (dsDNA)
DNA 1: AGGATTAGGATTAGGATTAGGA
DNA 2: TCCTAATCCTAATCCTAATCCT
- Kd (RTEL1 HHD2 [4]; blunt): 19.7 ± 4.67 µM

B3: dsDNA-24 (dsDNA)
DNA 1: TTAGGCAGAGAGAGAGAGTTAGGC
DNA 2: GCCTAACTCTCTCTCTCTGCCTAA
- Kd (RTEL1 HHD2 [3]; blunt): 1950 ± 310 nM

Molecule: TTAGGA (ssDNA) [ssDNA-6]
- binding result (RTEL1 HHD2 [6]): no binding

B4: 3'ss_dsDNA-24 (mixed)
DNA 1: TTAGGCAGAGAGAGAGAGTTAGGC
DNA 2: CTCTCTCTCTCTGCCTAA
- Kd (RTEL1 HHD2 [3]; 3' overhang 6 nt (strand 1)): 1220 ± 90 nM

Molecule: TTAGGATTAGGA (ssDNA) [ssDNA-12]
- Kd (RTEL1 HHD2 [3]; single strand): 1510 ± 140 nM

B5: 5'ss_dsDNA-24 (mixed)
DNA 1: TTAGGCAGAGAGAGAGAGTTAGGC
DNA 2: GCCTAACTCTCTCTCTCT
- Kd (RTEL1 HHD2 [3]; 5' overhang 6 nt (strand 1)): 2580 ± 270 nM
